Source: US20040077526A1

Assays:
[1] = target: murine SR-BI (mSR-BI), class B type I scavenger receptor (murine) (UniProt Q61009); assay: time course of cell association of 125I-HDL with ldlA[mSR-BI] cells at 37 C
[2] = target: murine SR-BI (mSR-BI), class B type I scavenger receptor (murine) (UniProt Q61009); assay: cell association of 125I-HDL with ldlA[mSR-BI] cells at 37 C
[3] = target: murine SR-BI (mSR-BI), class B type I scavenger receptor (murine) (UniProt Q61009); assay: self-competition: unlabeled HDL (500 µg protein/ml) against [125I,3H]hHDL3 (10 µg protein/ml) on Y1-BS1 cells

Sequence of UniProt Q61009 (Q61009 whole entry): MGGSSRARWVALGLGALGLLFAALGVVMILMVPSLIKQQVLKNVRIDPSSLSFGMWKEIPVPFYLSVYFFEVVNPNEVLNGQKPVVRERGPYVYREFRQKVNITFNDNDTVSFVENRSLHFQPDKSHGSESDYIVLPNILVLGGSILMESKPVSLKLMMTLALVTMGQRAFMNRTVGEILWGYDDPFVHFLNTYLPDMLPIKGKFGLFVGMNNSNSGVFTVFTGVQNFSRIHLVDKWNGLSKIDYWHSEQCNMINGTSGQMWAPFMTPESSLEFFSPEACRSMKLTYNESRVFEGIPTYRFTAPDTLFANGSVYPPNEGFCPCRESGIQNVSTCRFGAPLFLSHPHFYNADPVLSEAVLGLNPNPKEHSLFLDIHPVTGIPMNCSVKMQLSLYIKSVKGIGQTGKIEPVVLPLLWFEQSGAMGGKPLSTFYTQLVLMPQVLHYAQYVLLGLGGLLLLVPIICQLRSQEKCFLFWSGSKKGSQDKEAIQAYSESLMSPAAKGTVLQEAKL

Substance	cell-associated 125I-HDL at steady state (ng protein/mg cell protein) [1]	fraction of the total label bound to the transfected cells in 5 hours [2] [%]	reduction of cell association of HDL [3] [%]
human HDL (high density lipoprotein prepared from human plasma by zonal centrifugation) (from UniProt P02647 25-267; P02652 24-100)	200	< 0.5	
human HDL3 (hHDL3, 1.125-1.210 g/ml) labeled with [125I]dilactitol tyramine and [3H]cholesteryl oleolyl ether			85
